Assay results from US20120107267A1 (Novo Nordisk, published 2012).

Target: T1, His6-tagged hIL-21Rα extracellular domain (human, UniProt Q9HBE5 20-232)
T1 construct: extracellular domain; also called His6-tagged receptor EC domain; hIL-21Rα chain; not shown: His6 tag
Test: ALPHAScreen competition against biotinylated hIL-21 HA

T1 sequence (Q9HBE5 20-232): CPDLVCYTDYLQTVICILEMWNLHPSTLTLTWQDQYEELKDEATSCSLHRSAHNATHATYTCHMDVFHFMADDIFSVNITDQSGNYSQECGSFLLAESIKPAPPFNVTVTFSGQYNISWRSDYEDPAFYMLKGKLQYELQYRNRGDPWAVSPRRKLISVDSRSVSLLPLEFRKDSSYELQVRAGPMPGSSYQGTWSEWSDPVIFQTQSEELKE

B1: hIL-21 HA triple mutant [Q116D, H120D, L123D] (ligand)
chain: QGQDRHMIRMRQLIDIVDQLKNYVNDLVPEFLPAPEDVETNCEWSAFSCFQKAQLKSANTGNNERIINVSIKKLKRKPPSTNAGRRQKHRLTCPSCDSYEKKPPKEFLERFKSLLDKMIDQHDSSRTHGSEDSYPYDVPDYA
notes: Made by site-directed mutagenesis of the pcDNA3.1(+)/hIL-21HA plasmid and expressed in HEK293 cells
B1: binds.
